From US20230391843A1, “COMPOSITION AND METHOD FOR CONTROLLING HEAT GENERATION WITHIN ORGANISM, AND USE” (GUANGDONG JIANTEBO BIOTECHNOLOGY CO., LTD., priority 2021, published 2023)
Entries after “also recorded” stand apart in the source; their conditions may differ.

Legend:
EBI-3 KO mice = test: cold stimulation experiment at 4° C. after rmIL-27 treatment of EBI-3 KO mice; assay type: in vivo, mouse; conditions: rmIL-27 100 μg/kg intraperitoneally for 7 consecutive days, then cold stimulation at 4° C.
Method: Cold stimulation experiments were performed in a temperature controlled cold room. Mice were placed individually in individual cages (without bedding) at 4° C. The mice had free access to food and water. Rectal core body temperatures were recorded every 2 hours using a digital thermometer and a rectal thermocouple probe (TH-212, HICHANCE, China). If the core body temperature fell below 20° C., the individual mice were euthanized and scored as events for survival analysis.
8-week-old WT mice were fed with HFD for 32 weeks and randomly divided into 2 groups. The mice were injected intraperitoneally with rmIL-27 (100 μg/kg) or PBS for 15 consecutive days, and then, metabolic analysis was performed. 12-month-old EBI-3 KO mice were randomly divided into 2 groups, and injected intraperitoneally with rmIL-27 (100 μg/kg) or PBS for 7 consecutive days. The mice were then subjected to a cold stimulation experiment at 4° C.
As for FIG. 7A-FIG. 7C: 8-week-old Il27ra^f/f and Ucp1-Cre Il27ra^f/f mice were fed with HFD for 10 weeks. After HFD treatment for 10 weeks, GTT (FIG. 7A) and ITT (FIG. 7B) (n=5-6) tests were performed, and adipose tissue and livers were collected and weighed (FIG. 7C, n=5-6). […] Expression of UCP1 was detected by immunoblot. […] Expression of UCP1 or PPARα was analyzed by an immunoblot. […] A band density was quantified and normalized with ImageJ. […]

primary beige adipocytes = primary beige adipocytes treated with IL-27 in vitro, immunoblot analysis; assay type: cell-based, mouse; conditions: rmIL-27 100 ng/ml
Method: A whole cell lysate or tissue lysate was extracted using an RIPA lysis buffer (Beyotime, China) supplemented with a complete protease inhibitor (Roche) and a phosphatase inhibitor Cocktail 2 (P5726, Sigma), and a supernatant was used for subsequent analysis. Proteins were diluted in a Loading dye (BL502A, Bio-sharp), heated at 95° C. for 10 min, and separated on 4-12% polyacrylamide gel. The proteins were transferred to polyvinylidene fluoride membranes and western blot experiments were performed with the commercial antibodies and methods-reagents mentioned in the drawing.
Inguinal subcutaneous adipose tissue was minced and digested at 37° C. for 45 min in PBS containing collagenase II (1 mg/ml), and a tissue suspension was filtered by a 100 μm cell filter and centrifuged at 600 g for 5 min, such that a stromal vascular fraction (SVF) was granulated. After granulation, the product was further filtered by a 40 μm cell filter and placed on a collagen-coated plate. After overnight culturing, a supernatant containing non-adherent cells was removed. Precursor adipocytes were grown in DMEM containing 10% FBS and insulin (5 μg/ml) for fusion. The product was treated for 2 days with dexamethasone (1 μM), 3-isobutyl-1-methylxanthine (IBMX, 0.5 mM), insulin (5 μg/ml), indomethacin (125 nM) and rosiglitazone (1 μM) to induce differentiation of the fused cells, and then independently treated for another 5 days with insulin (5 μg/ml) and triiodothyronine (T3, 1 nM). On day 7, the cells were pretreated overnight with and without IL-27 (100 ng/ml) and then treated with isoproterenol (10 μM) or forskolin (10 μM) for 4-6 hours. IL-27 (100 ng/ml) was added for treatment for 0-120 min on day 7 for protein phosphorylation analysis, or for 12-24 h for protein expression level detection. For signal inhibition experiments, either the STAT3 inhibitor (C188-9, 10 μM) or the p38 MAPK inhibitor (SB203580, 10 μM) was added to a medium 0.5 h prior to and during IL-27 treatment.
FIG. 3A-FIG. 3M show promotion of heat generation by IL-27. As for FIG. 3A: primary beige adipocytes were generated in vitro from an SVF of WT SCW and then treated with rmIL-27 (100 ng/ml) or PBS for 24 hours. Cells were lysed and a protein extract was used for immunoblot analysis. As for FIG. 3B: immunoblot analysis of phosphorylation of the protein in the WT primary beige adipocyte extract treated with the rmIL-27 (100 ng/ml) for a specified time was shown. As for FIG. 3C: the primary beige adipocytes derived from WT SCW were generated in vitro. The STAT3 inhibitor (C188-9, 10 μM) or p38 MAPK inhibitor (SB203580, 10 μM) was added to a medium 0.5 hours prior to culturing and in duration of rmIL-27 treatment (100 ng/ml for 12 hours). Cell lysis and the representative immunoblot of the protein extract were shown. As for FIG. 3D-FIG. 3J: WT mice were fed with HFD for 32 weeks and then injected intraperitoneally. Every other day, rmIL-27 (100 μg/kg) or PBS was injected for 15 days. As for FIG. 3D: body weight was recorded at specified time points (n=8). As for FIG. 3E: after rmIL-27 treatment for 15 days, adipose tissue was collected and weighed (n=6-8) for a glucose tolerance test (FIG. 3F, n=8) and an insulin tolerance test (FIG. 3G, n=8). As for FIG. 3H: the mice were fasted overnight and then injected intraperitoneally with 0.75 U/kg insulin (15 min). Immunoblot analysis of pAKT (pSer473) in epididymal fat was performed. As for FIG. 3I: after rmIL-27 treatment for 15 days, oil-red O liver tissue staining was performed, with the scale=50 μm. As for FIG. 3J-FIG. 3M: UCP1-KO mice were fed with HFD for 20 weeks and then injected intraperitoneally with rmIL-27 (100 μg/kg) or PBS every other day for 15 days. As for FIG. 3J: body weight was recorded at specified time points (n=6). As for FIG. 3K: adipose tissue and livers were collected and weighed after rmIL-27 treatment for 15 days (n=6), and GTT (FIG. 3L, n=6) and ITT (FIG. 3M, n=4) tests were performed after rmIL-27 treatment for 15 days. […]

[1] = 0-120 min, immunoblot (FIG. 3B)

B1: IL-27: Recombinant mouse IL-27 (EBI-3/p28 heterodimer cytokine), purchased from Biolegend (577408) (protein, UniProt O35228 19-228; Q8K3I6 29-234, looked up)
Interleukin-27 subunit beta: YTETALVALSQPRVQCHASRYPVAVDCSWTPLQAPNSTRSTSFIATYRLGVATQQQSQPCLQRSPQASRCTIPDVHLFSTVPYMLNVTAVHPGGASSSLLAFVAERIIKPDPPEGVRLRTAGQRLQVLWHPPASWPFPDIFSLKYRLRYRRRGASHFRQVGPIEATTFTLRNSKPHAKYCIQVSAQDLTDYGKPSDWSLPGQVESAPHKP
Interleukin-27 subunit alpha: FPTDPLSLQELRREFTVSLYLARKLLSEVQGYVHSFAESRLPGVNLDLLPLGYHLPNVSLTFQAWHHLSDSERLCFLATTLRPFPAMLGGLGTQGTWTSSEREQLWAMRLDLRDLHRHLRFQVLAAGFKCSKEEEDKEEEEEEEEEEKKLPLGALGGPNQVSSQVSWPQLLYTYQLLHSLELVLSRAVRDLLLLSLPRRPGSAWDS
UCP1-mediated heat generation (EBI-3 KO mice): improved
body temperature / hypothermia in cold stimulation (EBI-3 KO mice; rectal temperature): avoided low temperatures; also recorded: reverse hypothermia
Phosphorylation of p38 MAPK (primary beige adipocytes; [1]): significantly increased
pSTAT3 (primary beige adipocytes; [1]): only transiently induced and rapidly regressed
expression of UCP1 (primary beige adipocytes; 24 hours, immunoblot (FIG. 3A)): significantly increased
expression of peroxisome proliferator-activated receptor α (PPARα) (primary beige adipocytes; 24 hours, immunoblot (FIG. 3A)): up-regulated
expression of peroxisome proliferator-activated receptor γ co-activator 1α (PGC-1α) (primary beige adipocytes; 24 hours, immunoblot (FIG. 3A)): up-regulated
activation of ATF2 (primary beige adipocytes; immunoblot (FIG. 3A-3C)): enhanced
